Data on two proteins can be found in patent US20240425876A1 (CHIGENOVO, published 2024).

This data set concerns the molecule itself. The data set is described as follows: Western blot of transfected HEK293 cells. As for the experimental part:
After 48 hours, the cells were lysed. The C-terminal truncated version containing a flag tag in the cells was enriched by using flag antibody (F1804. Sigma)-coupled magnetic beads, and then the presence of the N-terminal truncated version interacting with the C-terminal truncated version was detected by western blot using an HA antibody (AE036, ABclonal).
For orientation: In western blotting, separated proteins are transferred to a membrane and probed.

B1: C-terminal truncated version (aa 1348-2273) of ABCA4 with a Flag tag at its C-terminus (other)
chain: TQLVLQHVQALLVKRFQHTIRSHKDFLAQIVLPATFVFLALMLSIVIPPFGEYPALTLHPWIYGQQYTFFSMDEPGSEQFTVLADVLLNKPGFGNRCLKEGWLPEYPCGNSTPWKTPSVSPNITQLFQKQKWTQVNPSPSCRCSTREKLTMLPECPEGAGGLPPPQRTQRSTEILQDLTDRNISDFLVKTYPALIRSSLKSKFWVNEQRYGGISIGGKLPVVPITGEALVGFLSDLGRIMNVSGGPITREASKEIPDFLKHLETEDNIKVWFNNKGWHALVSFLNVAHNAILRASLPKDRSPEEYGITVISQPLNLTKEQLSEITVLTTSVDAVVAICVIFSMSFVPASFVLYLIQERVNKSKHLQFISGVSPTTYWVTNFLWDIMNYSVSAGLVVGIFIGFQKKAYTSPENLPALVALLLLYGWAVIPMMYPASFLFDVPSTAYVALSCANLFIGINSSAITFILELFENNRTLLRFNAVLRKLLIVFPHFCLGRGLIDLALSQAVTDVYARFGEEHSANPFHWDLIGKNLFAMVVEGVVYFLLTLLVQRHFFLSQWIAEPTKEPIVDEDDDVAEERQRIITGGNKTDILRLHELTKIYPGTSSPAVDRLCVGVRPGECFGLLGVNGAGKTTTFKMLTGDTTVTSGDATVAGKSILTNISEVHQNMGYCPQFDAIDELLTGREHLYLYARLRGVPAEEIEKVANWSIKSLGLTVYADCLAGTYSGGNKRKLSTAIALIGCPPLVLLDEPTTGMDPQARRMLWNVIVSIIREGRAVVLTSHSMEECEALCTRLAIMVKGAFRCMGTIQHLKSKFGDGYIVTMKIKSPKDDLLPDLNPVEQFFQGNFPGSVQRERHYNMLQFQVSSSSLARIFQLLLSHKDSLLIEEYSVTQTTLDQVFVNFAKQQTESHDLPLHPRAAGASRQAQD
notes: Expressed in HEK293 cells; captured on flag antibody-coupled magnetic beads; not shown: Flag tag linked to the C-terminus
Regarding B1, the binding result is given as “binds”.

B2: N-terminal truncated version (aa 1-1347) of ABCA4 with an HA tag at its C-terminus (other)
chain: MGFVRQIQLLLWKNWTLRKRQKIRFVVELVWPLSLFLVLIWLRNANPLYSHHECHFPNKAMPSAGMLPWLQGIFCNVNNPCFQSPTPGESPGIVSNYNNSILARVYRDFQELLMNAPESQHLGRIWTELHILSQFMDTLRTHPERIAGRGIRIRDILKDEETLTLFLIKNIGLSDSVVYLLINSQVRPEQFAHGVPDLALKDIACSEALLERFIIFSQRRGAKTVRYALCSLSQGTLQWIEDTLYANVDFFKLFRVLPTLLDSRSQGINLRSWGGILSDMSPRIQEFIHRPSMQDLLWVTRPLMQNGGPETFTKLMGILSDLLCGYPEGGGSRVLSFNWYEDNNYKAFLGIDSTRKDPIYSYDRRTTSFCNALIQSLESNPLTKIAWRAAKPLLMGKILYTPDSPAARRILKNANSTFEELEHVRKLVKAWEEVGPQIWYFFDNSTQMNMIRDTLGNPTVKDFLNRQLGEEGITAEAILNFLYKGPRESQADDMANFDWRDIFNITDRTLRLVNQYLECLVLDKFESYNDETQLTQRALSLLEENMFWAGVVFPDMYPWTSSLPPHVKYKIRMDIDVVEKTNKIKDRYWDSGPRADPVEDFRYIWGGFAYLQDMVEQGITRSQVQAEAPVGIYLQQMPYPCFVDDSFMIILNRCFPIFMVLAWIYSVSMTVKSIVLEKELRLKETLKNQGVSNAVIWCTWFLDSFSIMSMSIFLLTIFIMHGRILHYSDPFILFLFLLAFSTATIMLCFLLSTFFSKASLAAACSGVIYFTLYLPHILCFAWQDRMTAELKKAVSLLSPVAFGFGTEYLVRFEEQGLGLQWSNIGNSPTEGDEFSFLLSMQMMLLDAAVYGLLAWYLDQVFPGDYGTPLPWYFLLQESYWLGGEGCSTREERALEKTEPLTEETEDPEHPEGIHDSFFEREHPGWVPGVCVKNLVKIFEPCGRPAVDRLNITFYENQITAFLGHNGAGKTTTLSILTGLLPPTSGTVLVGGRDIETSLDAVRQSLGMCPQHNILFHHLTVAEHMLFYAQLKGKSQEEAQLEMEAMLEDTGLHHKRNEEAQDLSGGMQRKLSVAIAFVGDAKVVILDEPTSGVDPYSRRSIWDLLLKYRSGRTIIMSTHHMDEADLLGDRIAIIAQGRLYCSGTPLFLKNCFGTGLYLTLVRKMKNIQSQRKGSEGTCSCSSKGFSTTCPAHVDDLTPEQVLDGDVNELMDVVLHHVPEAKLVECIGQELIFLLPNKNFKHRAYASLFRELEETLADLGLSSFGISDTPLEEIFLKVTEDSDSGPLFAGGAQQKRENVNPRHPCLGPREKAGQTPQDSNVCSPGAPAAHPEGQPPPEPECPGPQLNTG
notes: Expressed in HEK293 cells from a codon-optimized CDS; tested in cell lysate; also called N1347; not shown: hemagglutinin (HA) tag linked to the C-terminus
Turning to B2, the binding result is recorded as “binds”.
